First the molecules themselves.
B2: DMC1 (untagged full-length human DMC1, wild type) (natural protein, UniProt Q14565 1-340, looked up)
chain: MKEDQVVAEEPGFQDEEESLFQDIDLLQKHGINVADIKKLKSVGICTIKGIQMTTRRALCNVKGLSEAKVDKIKEAANKLIEPGFLTAFEYSEKRKMVFHITTGSQEFDKLLGGGIESMAITEAFGEFRTGKTQLSHTLCVTAQLPGAGGYPGGKIIFIDTENTFRPDRLRDIADRFNVDHDAVLDNVLYARAYTSEHQMELLDYVAAKFHEEAGIFKLLIIDSIMALFRVDFSGRGELAERQQKLAQMLSRLQKISEEYNVAVFVTNQMTADPGATMTFQADPKKPIGGHILAHASTTRISLRKGRGELRIAKIYDSPEMPENEATFAITAGGIGDAKE

The target in data set [1] is T1, DMC1 (Homo sapiens, UniProt Q14565).
T1 sequence (Q14565 1-340): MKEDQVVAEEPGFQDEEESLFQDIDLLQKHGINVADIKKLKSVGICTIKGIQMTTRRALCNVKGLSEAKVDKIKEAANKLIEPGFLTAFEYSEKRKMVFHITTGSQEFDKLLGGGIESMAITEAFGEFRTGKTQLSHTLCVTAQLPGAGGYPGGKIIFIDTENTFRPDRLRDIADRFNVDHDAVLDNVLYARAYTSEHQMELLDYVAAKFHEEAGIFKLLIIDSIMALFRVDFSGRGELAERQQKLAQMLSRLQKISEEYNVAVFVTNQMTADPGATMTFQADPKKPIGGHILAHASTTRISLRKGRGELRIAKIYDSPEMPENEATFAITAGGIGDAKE
Description: Biolayer interferometry. To be noted: immobilized biotinylated peptide, DMC1 concentration of 5 μM, 25°C. In kind it is binding.

Data set [2] concerns DMC1–ssDNA filaments. The data set is described as follows: Electrophoretic mobility shift assay. It is filed as binding, human. Conditions: EMSA, 2 μM DMC1, 2 μM PhePP F2s3, 90 nt ssDNA, Ca-ATP, 30 min 37°C.
The target of data set [3] is T2, DMC1;BRCA2 F2s3 (PhePP) (human;human, UniProt Q14565;P51587 1-340;2379-2433, |).
T2 sequence 1: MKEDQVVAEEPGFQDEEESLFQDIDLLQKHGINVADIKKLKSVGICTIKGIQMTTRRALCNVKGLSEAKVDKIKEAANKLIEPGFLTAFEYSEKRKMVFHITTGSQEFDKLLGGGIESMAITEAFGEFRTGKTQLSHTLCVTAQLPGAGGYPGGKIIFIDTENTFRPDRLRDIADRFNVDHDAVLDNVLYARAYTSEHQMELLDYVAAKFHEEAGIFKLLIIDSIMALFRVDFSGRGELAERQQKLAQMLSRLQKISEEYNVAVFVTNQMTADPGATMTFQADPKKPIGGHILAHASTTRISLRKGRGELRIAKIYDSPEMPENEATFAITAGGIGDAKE
T2 sequence 2: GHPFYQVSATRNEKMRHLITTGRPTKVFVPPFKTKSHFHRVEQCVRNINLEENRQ
Description: EMSA.

Data set [4] has as its target T3, DMC1 F89A (human, UniProt Q14565 1-340, F89A).
T3 sequence: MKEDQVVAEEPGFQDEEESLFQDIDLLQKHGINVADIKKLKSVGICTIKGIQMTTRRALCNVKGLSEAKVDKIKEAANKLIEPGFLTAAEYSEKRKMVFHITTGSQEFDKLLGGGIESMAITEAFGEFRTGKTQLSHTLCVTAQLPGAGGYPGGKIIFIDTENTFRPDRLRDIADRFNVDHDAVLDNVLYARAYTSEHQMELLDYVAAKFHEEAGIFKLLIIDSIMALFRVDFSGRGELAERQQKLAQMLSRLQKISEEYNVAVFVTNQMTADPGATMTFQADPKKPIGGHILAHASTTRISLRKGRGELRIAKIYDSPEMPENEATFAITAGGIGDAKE
Description: EMSA.

Data set [5] addresses T4, DMC1 (human, UniProt Q14565 1-340).
T4 sequence: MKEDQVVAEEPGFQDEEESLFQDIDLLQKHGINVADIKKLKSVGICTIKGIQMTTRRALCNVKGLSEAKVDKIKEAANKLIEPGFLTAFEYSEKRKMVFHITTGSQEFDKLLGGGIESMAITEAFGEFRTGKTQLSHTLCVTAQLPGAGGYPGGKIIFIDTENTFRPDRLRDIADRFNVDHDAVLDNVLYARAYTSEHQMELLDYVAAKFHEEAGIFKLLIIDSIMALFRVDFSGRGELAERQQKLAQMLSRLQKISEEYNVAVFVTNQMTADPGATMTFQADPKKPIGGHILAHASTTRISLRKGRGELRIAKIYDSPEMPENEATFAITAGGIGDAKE
Description: EMSA.

Data set [6] concerns the molecule itself. Description: crystal structure.
Data set [7] deals with B2. The data set is described as follows: pull-down.
For data set [8], the target named is B2. Description: BLI.
The target of data set [9] is B2. Description: BLI. This is another data set of the same source.
Data set [10] deals with B2. The data set is described as follows: ITC.

Entries after “also recorded” stand apart in the source; their conditions may differ. The star is where a group is joined. Biotin = O=C1N[C@H]2[C@H](CS[C@H]2CCCCC(=O)*)N1

For the molecule “Biotin-GSG-SNHSFGGSFRTASNKEIKLSEHNIKKSKMFFKDIEE-NH2 [BRC1, reference compound]”, in data set [1], the “binding to DMC1 detected by BLI” value was “No binding was detected; also recorded: no interaction could be detected”.
On to “F2s3: purified bacterially expressed BRCA2 fragment 2379–2433 containing the PhePP motif”, for which the “effect on electrophoretic mobility of the DMC1–ssDNA complex” value in [2] is “reduced electrophoretic mobility”.
For “Biotin-GSG-VSPAAQKAFQPPRSSGTKYE-NH2 [TR2]”, in data set [1], the “binding to DMC1 detected by BLI” value was “No binding was detected; also recorded: no interaction could be detected”.
With “Biotin-GSG-TTGRPTKVAVPPFKTKSHFH-NH2 [PhePPmut]”, the “binding to DMC1 detected by BLI” value in data set [1] is reported as “No binding was detected”.

B1: AF-647-SK3-90 ssDNA (ssDNA)
DNA: AATTCTCATTTTACTTACCGGACGCTATTAGCAGTGGCAGATTGTACTGAGAGTGCACCATATGCGGTGTGAAATACCGCACAGATGCGT
As to B1, the binding result in data set [3], in [4] and in [5] was “binds” throughout.
As for B2, the “stoichiometry N” value in [6] was 8.

B3: GST-tagged BRCA2 F2s3 K2404A (domain or fragment, human, UniProt P51587 2379-2433, looked up)
chain: GHPFYQVSATRNEKMRHLITTGRPTAVFVPPFKTKSHFHRVEQCVRNINLEENRQ
In the case of B3, the binding result in data set [7] is given as “binds”.

B4: biotinylated BRCA2 F2s6 peptide (Biotin-GSG-F2s6-NH2) (peptide)
peptide: Biotin-GSGTTGRPTKVFVPPFKTKSHFH-NH2
As to B4, the dissociation constant Kd in [8] is roughly 0.001 µM.

B5: GST-tagged BRCA2 F2s3 R2401A (domain or fragment, human, UniProt P51587 2379-2433, looked up)
chain: GHPFYQVSATRNEKMRHLITTGAPTKVFVPPFKTKSHFHRVEQCVRNINLEENRQ
On to B5, for which the binding result in [7] is reported as “binds”.

B6: GST-tagged BRCA2 F2 R2401A (domain or fragment, human, UniProt P51587 2351-2479, looked up)
chain: APGQEFLSKSHLYEHLTLEKSSSNLAVSGHPFYQVSATRNEKMRHLITTGAPTKVFVPPFKTKSHFHRVEQCVRNINLEENRQKQNIDGHGSDDSKNKINDNEIHQFNKNNSNQAVAVTFTKCEEEPLD
B6: the binding result in data set [7] was “binds”.

B7: biotinylated RAD51AP1 P-motif peptide (peptide)
peptide: Biotin-GSGSAESKKPKWVPPAASGGSRS-NH2
Turning to B7, the Kd in data set [8] is roughly 1.6 µM.

B8: biotinylated FIGNL1 P-motif peptide (peptide)
peptide: Biotin-GSGRSRGILGKFVPPIPKQDGGE-NH2
Regarding B8, the dissociation constant (Kd) in [8] was roughly 16.2 µM.

B9: GST-tagged BRCA2 F2 (2351–2479), wild type (domain or fragment, human, UniProt P51587 2351-2479, looked up)
chain: APGQEFLSKSHLYEHLTLEKSSSNLAVSGHPFYQVSATRNEKMRHLITTGRPTKVFVPPFKTKSHFHRVEQCVRNINLEENRQKQNIDGHGSDDSKNKINDNEIHQFNKNNSNQAVAVTFTKCEEEPLD
For the molecule B9, the binding result in [7] is “binds”.

B10: GST-tagged BRCA2 F2 K2404A (domain or fragment, human, UniProt P51587 2351-2479, looked up)
chain: APGQEFLSKSHLYEHLTLEKSSSNLAVSGHPFYQVSATRNEKMRHLITTGRPTAVFVPPFKTKSHFHRVEQCVRNINLEENRQKQNIDGHGSDDSKNKINDNEIHQFNKNNSNQAVAVTFTKCEEEPLD
B10: in [7], the binding result was “binds”.

B11: BRCA2 F2s6 (2398–2417) synthetic peptide (peptide)
peptide: Ac-TTGRPTKVFVPPFKTKSHFH-NH2
For the molecule B11, the Kd stood at 2.1 ± 0.5 µM in [9] and 3.4 ± 1.3 µM in data set [10].

B12: BRCA2 F2s3 (2379–2433), purified recombinant peptide (domain or fragment, human, UniProt P51587 2379-2433, looked up)
chain: GHPFYQVSATRNEKMRHLITTGRPTKVFVPPFKTKSHFHRVEQCVRNINLEENRQ
With B12, the equilibrium dissociation constant (Kd) in data set [10] worked out at 3 ± 0.5 µM.

(Values after publication PMC11229353 (Nucleic Acids Research, 2024).)
